Assay results: the supplement of paper PMC10567573

B1: SLC22A15 (parent)
chain: IAQYALLGYFIRSWRTLAILVNLQ

Variants of: B1
Experiment: protein stability index of a GFP-peptide fusion (GPS, HEK-293T) (PSI 1-6); higher = more stable
Settings: c terminus: a fixed tail appended
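Also: lentivirally expressed fusions sorted by FACS into six bins by GFP to DsRed ratio, PSI derived from sequencing read proportions per bin multiplied by bin number.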

| Variant | protein stability index |
| --- | --- |
| IAQYALLGYFITSWRTLAILVNLQ | 1.97 |
| IAQYALLGYFIPSWRTLAILVNLQ | 2.67 |
| IAQYALLGYFIQSWRTLAILVNLQ | 1.93 |
| IAQYALLGYFIISWRTLAILVNLQ | 3.48 |
| IAQYALLGYFIVSWRTLAILVNLQ | 2.34 |
| IAQYALLGYFISSWRTLAILVNLQ | 3.61 |
| IAQYALLGYFINSWRTLAILVNLQ | 2.27 |
| IAQYALLGYFILSWRTLAILVNLQ | 2.94 |
| IAQYALLGYFIWSWRTLAILVNLQ | 2.88 |
| IAQYALLGYFIKSWRTLAILVNLQ | 2.95 |
| IAQYALLGYFIMSWRTLAILVNLQ | 2.98 |
| IAQYALLGYFIYSWRTLAILVNLQ | 3.46 |
| IAQYALLGYFIRSWRTQAILVNLQ | 2.85 |
| IAQYALLGYFIRSWRTHAILVNLQ | 3.02 |
| IAQYALLGYFIRSWRTFAILVNLQ | 2.3 |
| IAQYALLGYFIRSWRTIAILVNLQ | 2.52 |
| IAQYALLGYFIRSWRTGAILVNLQ | 3.63 |
| IAQYALLGYFIRSWRTTAILVNLQ | 4.02 |
| IAQYALLGYFIRSWRTVAILVNLQ | 4.09 |
| IAQYALLGYFIRSWRTYAILVNLQ | 2.18 |
| IAQYALLGYFIRSWRTDAILVNLQ | 2.83 |
| IAQYALLGYFIRSWRTMAILVNLQ | 2.57 |
| IAQYALLGYFIRSWRTAAILVNLQ | 3.45 |
| IAQYALLGYFIRSWRTEAILVNLQ | 3.59 |

| Variant | protein stability index |
| --- | --- |
| IAQYALLGYFIRSWRTKAILVNLQ | 2.4 |
| IAQYALLGYFIRSWRTWAILVNLQ | 2.85 |
| IAQYALLGYFIRSWRTPAILVNLQ | 2.05 |
| IAQYALLGYFIRSWRTRAILVNLQ | 1.98 |
| IAQYALLGYFIRSWRTSAILVNLQ | 3.35 |
| IAQYALLGYFIRSWRTLAMLVNLQ | 2.84 |
| IAQYALLGYFIRSWRTLADLVNLQ | 3.35 |
| IAQYALLGYFIRSWRTLAPLVNLQ | 3.94 |
| IAQYALLGYFIRSWRTLANLVNLQ | 3 |
| IAQYALLGYFIRSWRTLARLVNLQ | 2.16 |
| IAQYALLGYFIRSWRTLAKLVNLQ | 2.96 |
| IAQYALLGYFIRSWRTLAQLVNLQ | 3.02 |
| IAQYALLGYFIRSWRTLACLVNLQ | 3.7 |
| IAQYALLGYFIRSWRTLAYLVNLQ | 3.28 |
| IAQYALLGYFIRSWRTLASLVNLQ | 1.99 |
| IAQYALLGYFIRSWRTLATLVNLQ | 2.44 |
| IAQYALLGYFIRSWRTLAVLVNLQ | 2.96 |
| IAQYALLGYFIRSWRTLAHLVNLQ | 3.34 |
| IAQYALLGYFIRSWRTLAWLVNLQ | 2.01 |
| IAQYALLGYFIRSWRTLAALVNLQ | 3.93 |
| IAQYALLGYFIRSWRTLALLVNLQ | 2.4 |
| IAQYALLGYFIRSWRTLAFLVNLQ | 2.53 |
| IAQYALLGYFIRSWRTLAELVNLQ | 4 |
| IAQYALLGYFIRSWRTLAILVNAQ | 2.65 |

| Variant | protein stability index |
| --- | --- |
| IAQYALLGYFIRSWRTLAILVNEQ | 2.25 |
| IAQYALLGYFIRSWRTLAILVNDQ | 3.83 |
| IAQYALLGYFIRSWRTLAILVNCQ | 3.16 |
| IAQYALLGYFIRSPRTLAILVNLQ | 3.8 |
| IAQYALLGYFIRSCRTLAILVNLQ | 4 |
| IAQYALLGYFIRSTRTLAILVNLQ | 2.6 |
| IAQYALLGYFIRSLRTLAILVNLQ | 3.89 |
| IAQYALLGYFIRSYRTLAILVNLQ | 3.53 |
| IAQYALLGYFIRSERTLAILVNLQ | 1.91 |
| IAQYALLGYFIRSRRTLAILVNLQ | 2.52 |
| IAQYALLGYFIRSKRTLAILVNLQ | 1.79 |
| IAQYALLGYFIRSQRTLAILVNLQ | 3.34 |
| IAQYALLGYFIRSVRTLAILVNLQ | 2.46 |
| IAQYALLGYFIRSHRTLAILVNLQ | 4.19 |
| IAQYALLGYFIRSIRTLAILVNLQ | 3.04 |
| IAQYALLGYFIRSFRTLAILVNLQ | 2.86 |
| IAQYALLGYFIRSGRTLAILVNLQ | 3.14 |
| IAQYALLGYFIRSNRTLAILVNLQ | 3.47 |
| IAQYALLGYFIRSMRTLAILVNLQ | 2.62 |
| IAQYALLGYFIRSDRTLAILVNLQ | 2.61 |
| IAQYALLGYFIRAWRTLAILVNLQ | 2.29 |
| IAQYALLGYFIRKWRTLAILVNLQ | 1.4 |
| IAQYALLGYFIRIWRTLAILVNLQ | 3.82 |
| IAQYALLGYFIRTWRTLAILVNLQ | 3.14 |

| Variant | protein stability index |
| --- | --- |
| IAQYALLGYFIRQWRTLAILVNLQ | 2.61 |
| IAQYALLGYFIRWWRTLAILVNLQ | 2.3 |
| IAQYALLGYFIRLWRTLAILVNLQ | 4.37 |
| IAQYALLGYFIRNWRTLAILVNLQ | 2.56 |
| IAQYALLGYFIRMWRTLAILVNLQ | 3.12 |
| IAQYALLGYFIRRWRTLAILVNLQ | 3.53 |
| IAQYALLGYFIRHWRTLAILVNLQ | 3.68 |
| IAQYALLGYFIRGWRTLAILVNLQ | 2.4 |
| IAQYALLGYFIRVWRTLAILVNLQ | 2.11 |
| IAQYALLGYFIRFWRTLAILVNLQ | 2.29 |
| IAQYALLGYFIRCWRTLAILVNLQ | 3.26 |
| IAQYALLGYFIRPWRTLAILVNLQ | 2 |
| IAQYALLGYFIRYWRTLAILVNLQ | 2.3 |
| IAQYALLGYFIRDWRTLAILVNLQ | 3.34 |
| IAQYALLGYFIRSWRTLAILVTLQ | 1.9 |
| IAQYALLGYFIRSWRTLAILVVLQ | 2.23 |
| IAQYALLGYFIRSWRTLAILVALQ | 2.95 |
| IAQYALLGYFIRSWRTLAILVRLQ | 1.22 |
| IAQYALLGYFIRSWRTLAILVFLQ | 2.84 |
| IAQYALLGYFIRSWRTLAILVDLQ | 3.52 |
| IAQYALLGYFIRSWRTLAILVSLQ | 2.85 |
| IAQYALLGYFIRSWRTLAILVILQ | 3.28 |
